Molecular target: recombinantly expressed FphB protein (rFphB), wild type (Staphylococcus aureus) (UniProt Q2FV90)

Work on FphB-OX-5 (peptide) yielded an IC50 of inhibition of rFphB (100 nM), cleavage of the 4-MUB substrate (20 μM) of 1.8 µM.
